Source: the nanobody polyreactivity screen of Harvey et al. (2022)

Assay: yeast display, Sf9 membrane polyspecificity reagent, FACS + sequencing; frameworks hold sequencing errors
Method in brief: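 A nanobody's polyreactivity label depends on the gate it was sorted from. Yeast display cells were stained with 10% biotinylated, detergent-solubilized Sf9 membrane reagent for 1 hour at 4 °C, enriched on streptavidin microbeads and sorted by FACS. The low and high (top ~1%) gates were set on anti-HA fluorescence for expression and streptavidin fluorescence for reagent binding.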

Row | Sequence | polyreactivity (PSR sort gate)
1 | QVQLVESGGGLVQAGGSLRLSSAASGTFWWYAMGWYRQAPGQEMELVASINRGGSTYYADSVKGRFTISRDNAKNTVYLQMNSLKPEDTAVYYCAAQVDRKYRWFNSWGQGTQVTVSS | high polyreactivity
2 | QVQLVESGGGLVQAGGSLRLSSAASGYIFDRYTMGWYRQAPGKERELVASISRRGGSTYYADSVKGRFTISRDNAKNTVYLQMNSLKPEDTAVYYCAAPNALGYLFQGFDYWGLGTQVTVSS | high polyreactivity
3 | QVQLVESGGGLVQAGGSLRLSSAASGYIFGANGMGWYRQAPGKERELVATITSGGRTYYADSVKGRFTISRDNAKNNVYLQMNSLKPEDTAVYYCAAKLQYRWTWGYYYWGQGTQVTVSS | high polyreactivity
4 | QVQLVESGGGLVQAGGSLRLSSAASVSTVTPYAMGWYRQAPGKERELVAVISESGGSTYYADSVKGRFTISRDNAKNTVYLQMNSLKPEDTAVYYCAKASYPEVLYYFFRGYTFDSWGQGTQVTVSS | low polyreactivity
5 | QVQLVESGGGLVQAGGSLRLSSAATGRTFASNAMGWYRQAPGKERELVAAIRYRGDRTSYADSVKGRFTISRDNAKNTVYLQMNSLKPEDTAVYYCAAYYNSHGLDYWGQGTQVNVSS | low polyreactivity
6 | QVQLVESGGGLVQAGGSLRLSSAATGRTFASYAMGWYRPAPGKERELVAVITRGVRTYYADSVKGRFTISRDNAKNTVYLEMNSLKPEDTAVYYCAKERYNANYDTSLYDYWGQGTQVTVSS | low polyreactivity
7 | QVQLVESGGGLVQAGGSLRLSSAAYGIIIGYYAMGWYRQPPGKERELVAAISWSGGSTYYADSVKGRFTISRDNAKNTVYLQMNSLKPEDTAVYYCAAVVRRKSGNDTWRYNYWGQGTQVTVSS | high polyreactivity
8 | QVQLVESGGGLVQAGGSLRLSSAPSGIIIDYYAMGWYRQSPGKERELVAAITSGGSTSYADSEKGGFTISRDNAKKTVYLQMNSLKPEDTAVYYCNTEPSGYESGYWGQGTQVTVSS | low polyreactivity
9 | QVQLVESGGGLVQAGGSLRLSSAPSGSTFPGYAMGWYRQAPGKERQLVAAITGRGTSTYYADSVKGRFTISRDNAKNTVYLQMNSLKPEDTAVYYCAPYATFPTRYYYWGQGTQVTVSS | high polyreactivity
10 | QVQLVESGGGLVQAGGSLRLSSASSGSTFSLNAMGWYRQAPGTERELVAAISSSTGRTSYADSVKGRFTISRDNAKNTVYLQMTSLNPEDTAVYYCAADVYESLYFPYDSWRQGTQVTVSS | low polyreactivity
11 | QVQLVESGGGLVQAGGSLRLSSGASGLTIRRYAMGWSRQAPGKEREFVATISQNGGRTYYADSVKGRFTISRDNAKNTFYLQMNSLKPEDTAVYYCAAEDWRWGYDYWGQGTQVTVSS | high polyreactivity
12 | QVQLVESGGGLVQAGGSLRLSSGASGRIFAVYAMGWYRQAPGKERELVAAISYIGGSTYYADSVKGRFTISRDNAKNSVYLQMNSLKPEDTAVYYCATDSHDDTGAYDYWGQGTQVTVSS | low polyreactivity
13 | QVQLVESGGGLVQAGGSLRLSSPASGFNFKSNCMGWYRQAPGKERELIADIRRSVGSTYYADYVKGRFTISRDNAKNTVYLQMNSLKPEDTSVYYCNAKYIKGRDWGQCTQVTVSS | high polyreactivity
14 | QVQLVESGGGLVQAGGSLRLSSPASGFTFLAYAMGWYRQAPGKERELVAAISASSGRTRYADSVKGRFTISRDNAKNTVYLQMISLKPEDTAVYYCAARYRGTYRRDYWGQGTQVTVSS | high polyreactivity
15 | QVQLVESGGGLVQAGGSLRLSSSASGGIFRSYAMGWYRQAPGKERELVATITDRGGSTYYADSVKGRFTISRDNAKNTVYLQMNSLKPEDTAVYYCAAELVNRLWYRVVHFDYWGQGPQVTVSS | low polyreactivity
16 | QVQLVESGGGLVQAGGSLRLSSSASGRIFVYYAMGWYRQAPGKERELVAAITYSVDSTYYADSVKARFTISRDNAKNTVYLQMNSLKPEDTAVYYCATDVDWAYGYQYEYWGQGTQVTVSS | low polyreactivity
17 | QVQLVESGGGLVQAGGSLRLSSSASGSIFDGYAMGWYRQAPGKEREFVAAIRWGDGIKYYADSVKGRFTISRDNAKNTVYLQMNSLTPEDTAVYYCAAVQHGHEPRVQDSYDYWGQGTQVTVSS | low polyreactivity
18 | QVQLVESGGGLVQAGGSLRLSWAASGGIFKVYGMRWYRQAPGKERELVAAISWTTGGTYYADSVKGRFTISRDNAKNTVYLQMNSLKPEDTAVYYCAAEYADSWSAFDWNYYYWGQGTQVTVSS | high polyreactivity
19 | QVQLVESGGGLVQAGGSLRLSWAASGRIIYGYAMGWYRQAPGKERELVAAITATYYADSVKGRFTISRDNAKNTVYLQMNSLKPEDTAVYYCNAYLYPKQPLSPPDPTFEGGYWGQGTQVTVSS | low polyreactivity
20 | QVQLVESGGGLVQAGGSLRLTCAASASIFGHNTMGWNREAPGKERELVAAISVSGTRTYYADSVKGRFTISRVNAKNTVYLQMNSLKPEDTAVYYCAAEISRVRQGVAWSYKYEYWGQGTQVTVSS | high polyreactivity
21 | QVQLVESGGGLVQAGGSLRLTCAASGFIFDEYAMGWYRQAPGKERELVAAISWSGSRTYYADSVKGRFTISRDNAKTTVYLQMNSLKPEDTAVYYCAKVTGVGAGRRNYWGQGTQVTVSS | high polyreactivity
22 | QVQLVESGGGLVQAGGSLRLTCAASGFIFKFYAMGWSRQAPGKEREVVAAITSSGGSTYYADSVKGRFTISRDNAKNTVYLQMNSLKPEDTAVYYCAAQFPGVYYYIYDYWGQGTQVTVSS | high polyreactivity

Row | Sequence | polyreactivity (PSR sort gate)
23 | QVQLVESGGGLVQAGGSLRLTCAASGFIFLPYAMGWYRQAPGKERELVAAITRGGRTYYADSVKGRFTISRDNAKNTVYLQMNSLKPEDTAVYYCAATTYLVWGYNYWGQGTQVTVSS | low polyreactivity
24 | QVQLVESGGGLVQAGGSLRLTCAASGFIFNHNAMGWYRQAPGKERELVAAISSGGRTYYADSVKGRFTISRDNAKNTVYLQMNSLKPEDTAVYYCAKDTKYSSQYGKYGYWGQGTQVTVSS | low polyreactivity
25 | QVQLVESGGGLVQAGGSLRLTCAASGFIFPRYAMGWYRQAPGKERELVAAISYSGGSTYYADSVKGRFTISRDNAKNTVYLQMNSLKPEDTAVYYCNKDFPPQGQLRNMYYWGQGTQVTVSS | high polyreactivity
26 | QVQLVESGGGLVQAGGSLRLTCAASGFIFQNYAMGWYIQAPGKERELVSAIDFTDGSKYYADSVKGRYTISRDNAKNSVYLQMNSLKPEDTSVDYCNALDYLYGGIYLEEDYWGQGTQVTVSS | low polyreactivity
27 | QVQLVESGGGLVQAGGSLRLTCAASGFIFSRYTMGWYRQAPGKERELVAAISRRGGNTYYADSVKGRFTISRDNAKNTVYLQMNSLKPEDTAVYYCAADYAWPLRVTGDYWGQGTQVTVSS | low polyreactivity
28 | QVQLVESGGGLVQAGGSLRLTCAASGFIFTYYAMGWYRQAPGKERELVAAISSSGGRTAYADSVKGRYTISRDNAKNTVYLQMNSLKPEDTAVYYCAARIRASGGKDGYNSWGQGTQVTVSS | high polyreactivity
29 | QVQLVESGGGLVQAGGSLRLTCAASGFIFWANAMGWYRPAPGKERELVAAIRYSGGRTYYADSVKGRYTISRDNAKNTVFLQKNSLKPEDTAVYYCAKEYKKYGGFVVENDYWGQGTQVNVSS | low polyreactivity
30 | QVQLVESGGGLVQAGGSLRLTCAASGFILKYYAMGWYRHAPGKERHLVAAITVSGGSTYYADSVKGRFTISRDNAKNTVYLQMNSLKPEDTAVYYCNADYPRGGAGLLDYWGQCTQVTVSS | low polyreactivity
31 | QVQLVESGGGLVQAGGSLRLTCAASGFISSENAMGWYRQAPGKERELVAAISSGGCTNYADSVKGRFTISRDNAKNTVYLQMNSLKEEDTAVYYCAATLPGWYNEDDSWGQGTHVTVSS | low polyreactivity
32 | QVQLVESGGGLVQAGGSLRLTCAASGFNFWDYAMGWYRQAPGKERELFAAISDSGGDTYYADSVKGRFTISRDNAKNTVYLQMNSLKPEDTAVYYCASDVELWVFRGQQYDYWGQGTQVTVSS | low polyreactivity
33 | QVQLVESGGGLVQAGGSLRLTCAASGFTFGSYVMGWYRQAPGKERELVADISIRGGSTYYADSVKGRFTISRDNAKNTVYLQMHSLKPEDTAVYYCNADPAFYYWEGIVGGADYDYWGIGTQVTVSS | low polyreactivity
34 | QVQLVESGGGLVQAGGSLRLTCAASGFTFYLNAMGWYRQAPGKERELVAAITDDGDSTYYADSVKGRFTISRDNAKNTVYLQMNSLKPEDTAVYYCNTVYGPDLDGTEYDYWGQGTQVTVSS | low polyreactivity
35 | QVQLVESGGGLVQAGGSLRLTCAASGFTFYWYTMGWYRQAPGKERELVATISGSGGRTYYADSVKGRFTISRDNAKNTVYLQMNSLKPEDTAVYYCNAGRPYKYGYWGQGTQVTVSS | high polyreactivity
36 | QVQLVESGGGLVQAGGSLRLTCAASGGIFRPNAMGWYRPAPGKERELVASIDDGDSTNYADSVKGPFTISRDNAKNTVSLQMNSLKPEDTAVYYFAAEQGYTVIYDYWGQGSQVTVSS | low polyreactivity
37 | QVQLVESGGGLVQAGGSLRLTCAASGGISLYYVMGWYRQAPGKERELVADISGDDSTNYADSVKGRFTISRDNAKNTVYLQMNSLKPEDTAVYYCAAVPGLFYLPYDYWGQGTQVTVSS | low polyreactivity
38 | QVQLVESGGGLVQAGGSLRLTCAASGGTFRRYTMGWYRQAPGKERELVAVISRSGGSTYYADSVKGRFTISRDNAKNTVYLQMNRLKPEDTAVYYCAVVYYNGYDWGQGTQVTVSS | high polyreactivity
39 | QVQLVESGGGLVQAGGSLRLTCAASGIIFSYNAMGWYRQAPGKERELVAAIRWSGDSTYYADSVKGRFTISRDIAKNTVYLQMNSMKPEDTAVYYCAAEFFLSYPRYEYWGQGTQVTVSS | low polyreactivity
40 | QVQLVESGGGLVQAGGSLRLTCAASGITFGDYALGWYRQAPGKERELVAAITRRSGNTRYADSVKGRFTISRDNAKNTVYLQMNSLKPEDTAVYYCNARWFSYARGFENGYWGQGTQVTVSS | high polyreactivity
41 | QVQLVESGGGLVQAGGSLRLTCAASGITFISYAMGWYIQAPGKERELVAAITKSGGRTYYADSVKGRFTISRDNAKKTVYLQMNSLKPEDTAVYYCAAYHLRDNRIGGGYWGQGTQVTVSS | high polyreactivity
42 | QVQLVESGGGLVQAGGSLRLTCAASGITFYGYAMGWYRQAPGKERELVAAISKSGGSTHYADSVKGRFTISRDNAKNTVYLQMNSLKPEDTAVYYCAAAYWTRLRRMDYWGQGTQVTVSS | low polyreactivity
43 | QVQLVESGGGLVQAGGSLRLTCAASGLIFARNAMGWYRQAPGKDRELVAAISSSGNTYADSVKGRFTISRDNAKNTVYLHMNSLKPEDTAVYYCNAVRRIRVTSTYDYWGQGTQVTVSS | high polyreactivity
